Consider nine molecules from patent US20250049896A1 (Regeneron, published 2025).

Experiment [1] concerns the target T1, hmm.hTfRC (REGN2431), human transferrin receptor extracellular domain with hexahistidine-myc-myc tag (human, UniProt P02786 89-760).
T1 construct: Monomeric recombinant protein, 79210 g/mol; also called hTFR-mmh; His-myc-myc-hTFRC ecto
Nature of the experiment: SPR (Biacore), mAb captured on anti-human Fc, 100 nM hTFR-mmh, 25 C. On the procedure: (§1) Biacore binding kinetics assays were conducted for the interaction of 32 anti-human TfR IgG1 monoclonal antibodies from CHO supernatants with TfR reagents at 25° C.
(§2) Equilibrium dissociation constants (KD) for the interaction of anti-TfR monoclonal antibodies with human and fascicularis monkey TfR ecto domain recombinant proteins were determined using a real-time surface plasmon resonance (SPR) based Biacore S200 biosensor. All binding studies were performed in 10 mM HEPES, 150 mM NaCl, 3 mM EDTA, and 0.05% v/v surfactant Tween-20, pH 7.4 (HBS-EP) running buffer at […]. The Biacore CM5 sensor surface was first derivatized by amine coupling with a monoclonal mouse anti-human Fc antibody (REGN2567) followed by a step to capture anti-TfR monoclonal antibodies in CHO conditioned media. […] The dissociation of TfR bound to anti-TfR monoclonal antibodies was monitored for 3 minutes in HBS-EP running buffer. At the end of each cycle, the anti-TfR monoclonal antibodies capture surface was regenerated using a 12-sec injection of 20 mM H₃PO₄. The association rate (ka) and dissociation rate (kd) were determined by fitting the real-time binding sensorgrams to a 1:1 binding model with mass transport limitation using Scrubber 2.0 c software. The dissociation equilibrium constant (KD) and dissociative half-life (t½) were calculated from the kinetic rate constants as: […]

In experiment [2] the target is T2, mf TFRC ecto-mmh (REGN2054), monomeric monkey (cyno) Tfrc ectodomain with C-terminal myc-myc-hexahistidine tag (monkey (cyno), Macaca fascicularis, UniProt H9EXL1 89-760).
T2 construct: range 89-760; also called mfTfR-mmh; mfTFR-mmh
T2 sequence (chain, as listed by the source): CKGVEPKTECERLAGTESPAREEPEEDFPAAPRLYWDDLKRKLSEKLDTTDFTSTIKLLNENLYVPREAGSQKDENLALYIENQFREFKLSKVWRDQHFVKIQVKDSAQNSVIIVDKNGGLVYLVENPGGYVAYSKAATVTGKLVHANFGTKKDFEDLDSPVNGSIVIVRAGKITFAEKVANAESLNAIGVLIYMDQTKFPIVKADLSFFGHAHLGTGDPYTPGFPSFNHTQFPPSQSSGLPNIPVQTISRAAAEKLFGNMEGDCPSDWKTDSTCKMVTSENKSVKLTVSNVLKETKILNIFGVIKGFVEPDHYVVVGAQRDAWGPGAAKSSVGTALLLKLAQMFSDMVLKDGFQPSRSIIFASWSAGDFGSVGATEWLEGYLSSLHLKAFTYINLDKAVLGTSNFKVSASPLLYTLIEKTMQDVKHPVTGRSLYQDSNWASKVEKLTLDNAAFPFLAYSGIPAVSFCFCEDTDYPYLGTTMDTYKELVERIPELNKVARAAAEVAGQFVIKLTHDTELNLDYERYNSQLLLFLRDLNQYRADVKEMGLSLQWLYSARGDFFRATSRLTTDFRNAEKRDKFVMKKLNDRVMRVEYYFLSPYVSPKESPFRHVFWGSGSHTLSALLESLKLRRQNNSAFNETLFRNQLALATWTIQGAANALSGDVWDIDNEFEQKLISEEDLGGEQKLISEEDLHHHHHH
Nature of the experiment: SPR (Biacore), mAb captured on anti-human Fc, 100 nM mfTfR-mmh, 25 C. On the procedure: as §1, §2

T1 sequence (P02786 other isoform, or with tags, fused parts or gaps): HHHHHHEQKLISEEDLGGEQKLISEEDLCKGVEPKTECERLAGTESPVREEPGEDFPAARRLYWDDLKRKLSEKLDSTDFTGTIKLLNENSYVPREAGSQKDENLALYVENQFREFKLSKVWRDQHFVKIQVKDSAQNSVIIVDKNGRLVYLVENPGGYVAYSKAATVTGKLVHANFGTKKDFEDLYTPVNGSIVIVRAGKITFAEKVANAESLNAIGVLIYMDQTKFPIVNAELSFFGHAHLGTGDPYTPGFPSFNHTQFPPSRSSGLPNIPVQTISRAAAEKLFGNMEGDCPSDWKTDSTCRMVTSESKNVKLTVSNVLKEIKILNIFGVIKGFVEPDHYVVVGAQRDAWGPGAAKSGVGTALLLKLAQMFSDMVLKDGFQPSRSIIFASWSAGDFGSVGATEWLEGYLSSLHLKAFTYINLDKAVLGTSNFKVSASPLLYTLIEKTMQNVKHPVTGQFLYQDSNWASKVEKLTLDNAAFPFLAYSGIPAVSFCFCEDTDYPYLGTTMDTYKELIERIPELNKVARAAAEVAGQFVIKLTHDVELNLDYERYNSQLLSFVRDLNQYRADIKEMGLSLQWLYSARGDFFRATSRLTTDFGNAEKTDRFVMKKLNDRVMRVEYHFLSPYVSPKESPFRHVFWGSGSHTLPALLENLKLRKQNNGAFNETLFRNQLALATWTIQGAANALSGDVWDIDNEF

B1: 69323 (antibody, human IgG1, kappa, V domains shown)
VH: EVQLVESGGGLVQPGRSLRLSCAASGFTFDDYAMHWVRQAPGKGLEWVSGISWNSGYIGYADSVKGRFTISRDNAENSLHLQMNSLRAEDTALYYCARGGSTLVRGVKGGYYGMDVWGQGTTVTVSS
VL: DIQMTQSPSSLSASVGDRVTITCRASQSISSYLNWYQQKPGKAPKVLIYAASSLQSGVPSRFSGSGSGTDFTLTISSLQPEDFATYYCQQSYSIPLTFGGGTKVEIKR
notes: Tested as bivalent human IgG1 from CHO primary supernatant
A word on the Kd: it is the concentration at which binding is half-saturated. A word on the koff: it is the first-order rate constant of dissociation. In general, kon refers to the second-order rate constant of association. The t½ is the time needed for the level to fall by half in the phase considered. With B1, in experiment [1], the “100 nM Ag Bound (RU)” value amounted to 465 RU, binding was put at a Kd of 2.45 nM, the koff stood at 0.00018 s⁻¹ and the kon worked out at 73400 M⁻¹ s⁻¹. In experiment [1], the t½ is 64.1 min. Moreover, in experiment [2], the “100 nM Ag Bound (RU)” value came out at 24 RU; the affinity, expressed as Kd, was 19 nM; the koff amounted to 0.0106 s⁻¹; the kon stood at 558000 M⁻¹ s⁻¹. Also, in experiment [2], the t½ turned out to be 1.1 min.

B2: 31874B (antibody, human IgG1, kappa, V domains shown)
VH: EVQLVESGGGLVQPGGSLRLSCAASGFAFSSYAMTWVRQAPGKGLEWVSVISGTGGSTYYADSVKGRFTISRDNSKNTLYLQMNSLRAEDTAVYYCAKGGAARRMEYFQYWGQGTLVTVSS
VL: DIQMTQSPSSLSASVGDRVTITCRASQGISNYLAWYQQKPGKVPNLLIYAASTLQSGVPSRFSGSGSGTDFTLTISSLQPEDVATYYCQKYNSAPLTFGGGTKVEIKR
notes: Tested as bivalent human IgG1 from CHO primary supernatant; also called H1H31874B; REGN17517
Take B2: in experiment [1], the “100 nM Ag Bound (RU)” value amounted to 904 RU, the Kd was determined as 0.836 nM, the koff was 0.000115 s⁻¹ and the kon is 138000 M⁻¹ s⁻¹. This molecule also had a t½ in experiment [1] of 100 min. Moreover, in experiment [2], the “100 nM Ag Bound (RU)” value came to 26 RU, the Kd is 14.4 nM, the off-rate (koff) amounted to 0.00996 s⁻¹ and the kon amounted to 691000 M⁻¹ s⁻¹. This molecule showed a t½ in experiment [2] of 1.2 min.

B3: 69263 (antibody, human IgG1, kappa, V domains shown)
VH: EVQLVESGGGLVQPGRSLRLSCAVSGFTFDDYAMHWVRQAPGKGLEWVSGISWNSGTRGYADSVKGRFTISRDNAKNSLYLQMNSLRGEDTALYYCVKDITISPNYYGMDVWGQGTTVTVSS
VL: DIQMTQSPSSLSASVGDRVTITCRASQDISHYSAWYQQKPGKLPNLLIYAASTLQSGVPSRFSGSGSGTDFSLTTSSLQPEDVATYYCQKYNSVPLTFGGGTKVEIKR
notes: as for B1
As for B3, in experiment [1], the “100 nM Ag Bound (RU)” value was 150 RU, the Kd is 6.5 nM, the koff was 0.00115 s⁻¹ and the kon is 177000 M⁻¹ s⁻¹. Further, the t½ in experiment [1] worked out at 10 min. In addition, in experiment [2], the “100 nM Ag Bound (RU)” value worked out at 77 RU, the Kd was determined as 19.2 nM, the koff is 0.00378 s⁻¹ and the kon came to 197000 M⁻¹ s⁻¹. In addition, the t½ in experiment [2] turned out to be 3.1 min.

B4: 69331 (antibody, human IgG1, kappa, V domains shown)
VH: QVQLVESGGGVVQPGRSLRLSCIASGFTFSVYGIHWVRQAPGKGLEWMAVISHDGNIKHYADSVKGRFTISRDNSKNTLYLQINSLRTEDTAVYYCAKDTWNSLDTFDIWGQGTMVTVSS
VL: DIQLTQSPSSLSASVGDRVTITCWASQGISSYLAWYQQKPGKAPKLLIYAASTLQSGVPSRFSGSGSGTEFTLTISSLQPEDFATYYCQQLNSYPLTFGGGTKVEIKR
notes: as for B1
In the case of B4, in experiment [1], the “100 nM Ag Bound (RU)” value was determined as 87 RU, the Kd is 41 nM, the koff was determined as 0.00466 s⁻¹ and the kon came to 114000 M⁻¹ s⁻¹. In experiment [1], this molecule had a t½ of 2.5 min. In addition, in experiment [2], the “100 nM Ag Bound (RU)” value came out at 26 RU, the Kd came to 20.5 nM, the koff worked out at 0.01 s⁻¹ and the kon came out at 489000 M⁻¹ s⁻¹. For the same molecule, the t½ in experiment [2] was determined as 1.2 min.

B5: 12816B (antibody, human IgG1, kappa, V domains shown)
VH: QVQLVESGGGLVKPGGSLRLSCAASGFTFSDYYMNWIRQAPGKGLEWVSYISSSGTTIYYADSVKGRFTISRDNAKKSLYLEMNSLRAEDTAVYYCAREGYGNDYYYYGIDVWGQGTTVTVSS
VL: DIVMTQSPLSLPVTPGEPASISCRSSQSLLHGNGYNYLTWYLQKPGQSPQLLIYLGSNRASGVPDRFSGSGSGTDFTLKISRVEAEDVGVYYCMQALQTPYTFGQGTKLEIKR
notes: as for B1
Consider B5, for which, in experiment [1], the “100 nM Ag Bound (RU)” value is 357 RU, the Kd turned out to be 5.8 nM, the dissociation rate constant (koff) turned out to be 0.000336 s⁻¹ and the kon is 57900 M⁻¹ s⁻¹. In experiment [1], the t½ stood at 34.3 min. Further, in experiment [2], the “100 nM Ag Bound (RU)” value came to 315 RU, the Kd amounted to 7.44 nM, the koff amounted to 0.000485 s⁻¹ and the kon came out at 65200 M⁻¹ s⁻¹. The t½ in experiment [2] was 23.8 min.

B6: 69261 (antibody, human IgG1, kappa, V domains shown)
VH: QVQLVESGGGLVKPGGSLRLSCAASGFTFSVYYMNWIRQAPGKGLEWVSYISSSGSTIYYADSVKGRFTISRDNAKNSLYLQMNSLRAEDTAVYYCGREGYSGTYSYYGMDVWGQGTTVTVSS
VL: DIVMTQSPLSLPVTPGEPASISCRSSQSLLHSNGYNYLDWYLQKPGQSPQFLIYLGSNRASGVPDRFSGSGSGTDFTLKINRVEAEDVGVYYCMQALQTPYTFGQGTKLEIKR
notes: as for B1
Turning to B6, in experiment [1], the “100 nM Ag Bound (RU)” value turned out to be 462 RU, the Kd was determined as 1.16 nM, the koff is 8.08e-05 s⁻¹ and the kon was 70000 M⁻¹ s⁻¹. The same molecule had a t½ in experiment [1] of 143 min. Besides, in experiment [2], the “100 nM Ag Bound (RU)” value came to 331 RU, the Kd stood at 5.9 nM, the koff came out at 0.000403 s⁻¹ and the kon is 68300 M⁻¹ s⁻¹. In experiment [2], this molecule returned a t½ of 28.7 min.

B7: 12833B (antibody, human IgG1, kappa, V domains shown)
VH: QVQLVESGGGVVQPGRSLRLSCAASGFTFSSFGMHWVRQAPGKGLEWVIFISYDGSDKYYADSVKGRFAISRDSSKNTLYLQMNSLRAEDTAVYYCAKENGILTDSYGMDVWGQGTTVTVSS
VL: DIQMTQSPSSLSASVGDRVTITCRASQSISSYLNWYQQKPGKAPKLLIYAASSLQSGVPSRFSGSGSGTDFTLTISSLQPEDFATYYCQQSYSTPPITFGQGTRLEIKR
notes: as for B1
B7: in experiment [1], the “100 nM Ag Bound (RU)” value amounted to 409 RU, the Kd was found to be 3.51 nM, the off-rate (koff) turned out to be 0.000252 s⁻¹ and the kon was determined as 72000 M⁻¹ s⁻¹. Besides, the t½ in experiment [1] came out at 45.9 min. Besides, in experiment [2], the “100 nM Ag Bound (RU)” value came to 346 RU, the Kd came out at 7.02 nM, the koff was found to be 0.000486 s⁻¹ and the kon was 69200 M⁻¹ s⁻¹. In experiment [2], this molecule had a t½ of 23.8 min.

B8: 69340 (antibody, human IgG1, kappa, V domains shown)
VH: EVQLVESGGGLVQPGRSLRLSCAASGFTFDDKAMHWVRQVPGKGLEWISGISWNSGTIGYADSVKGRFIISRDNAKNSLYLQMNSLRAEDTALYYCAKDGDTSGWYWYGLDVWGQGTTVTVSS
VL: EIVLTQSPATLSLSPGERATLSCRASQSVSSYLAWYQQKPGQAPRLLIHDVSNRATGIPARFSGSGSGTDFTLTISSLEPEDFVVYYCQQRSDWPITFGQGTRLEIKR
notes: as for B1
In the case of B8, in experiment [1], the “100 nM Ag Bound (RU)” value turned out to be 999 RU, the Kd came out at 0.429 nM, the koff is 6.23e-05 s⁻¹ and the kon was 144000 M⁻¹ s⁻¹. In addition, the t½ in experiment [1] worked out at 185 min. In experiment [2], the “100 nM Ag Bound (RU)” value was 634 RU, binding was put at a Kd of 8.11 nM, the koff amounted to 0.000723 s⁻¹ and the kon stood at 89200 M⁻¹ s⁻¹. For the same molecule, in experiment [2], the t½ was 16 min.

B9: 69348 (antibody, human IgG1, kappa, V domains shown)
VH: QVQLVESGGGVVQPGRSLRLSCAASGFTFTTYGMHWVRQAPGKGLEWVAVIWYDGSNKYYGDSVKGRFTISRDNSKNTLYLQMNSLRVDDTAVYYCTRTHGYTRSSDGFDYWGQGTLVTVSS
VL: DIQMTQSPSSLSASVGDRVTITCRASQSIRNVLGWFQQKPGKAPQRLIYAASSLQSGVPSRFSGSGSGTEFTLTISSLQPEDFATYYCLQHNFYPLTFGGGTKVEIKR
notes: as for B1
As to B9, in experiment [1], the “100 nM Ag Bound (RU)” value turned out to be 680 RU, binding was characterised by a dissociation constant (Kd) of 1.62 nM, the off-rate (koff) amounted to 0.000172 s⁻¹ and the kon stood at 106000 M⁻¹ s⁻¹. Further, in experiment [1], the t½ came out at 67.2 min. Also, in experiment [2], the “100 nM Ag Bound (RU)” value stood at 433 RU, the Kd stood at 4.8 nM, the koff came to 0.000461 s⁻¹ and the kon amounted to 96000 M⁻¹ s⁻¹. The same molecule showed a t½ in experiment [2] of 25.1 min.
